Assay results taken from patent publication US20020199211A1 (CHILDREN S MEDICAL CENTER, published 2002).

Experiments:
[1] = molecular target: T1, full length WASP cloned into the bait vector pGBT9 (Gal4 binding domain fusion) (UniProt P04386 1-147; P42768 1-502); experiment: yeast two-hybrid (HF7c); - means no growth on selective medium
T1 construct: also called WAS protein
Experimental: (§1) Yeast transformation and colony analysis were performed according to the manufacturer's instructions (Matchmaker Two-Hybrid System Protocol, CLONTECH).

[2] = molecular target: Nck-GBT9 (full-length Nck in the bait vector pGBT9) (UniProt P04386 1-147; P16333 1-377); experiment: as above
Experimental: as §1

Binder | binding result [1] | binding result [2]
pGAD424 without insert (Gal4 activation domain alone) (other, UniProt P04386 768-881, looked up, also called None (pGAD424)) ANFNQSGNIADSSLSFTFTNSSNGPNLITTQTNSQALSQPIASSNVHDNFMNNEITASKIDDGNNSKPLSPGWTDQTAYNAFGITTGMFNTTTMDDVYNYLFDDEDTPPNPKKE | no binding | no binding
human TRAF1 (amino acids 62-416) in pGAD424 (other, UniProt Q13077 62-416, looked up, not shown: large carriers, Control prey; also called tumor necrosis factor receptor-associated factor 1) LQSISPGSRLRTQEKAHPEVAEAGIGCPFAGVGCSFKGSPQSVQEHEVTSQTSHLNLLLGFMKQWKARLGCGLESGPMALEQNLSDLQLQAAVEVAGDLEVDCYRAPCSESQEELALQHFMKEKLLAELEGKLRVFENIVAVLNKEVEASHLALATSIHQSQLDRERILSLEQRVVELQQTLAQKDQALGKLEQSLRLMEEASFDGTFLWKITNVTRRCHESACGRTVSLFSPAFYTAKYGYKLCLRLYLNGDGTGKRTHLSLFIVIMRGEYDALLPWPFRNKVTFMLLDQNNREHAIDAFRPDLSSASFQRPQSETNVASGCPLFFPLSKLQSPKHAYVKDDTMFLKCIVETST | no binding | no binding
